Reference: US20130209454A1

Columns and labels:
Test in all cases: cell-based or functional assay
[1] = target: HIV-1 Env of strain 6811.v7.c18 (HIV-1)
[2] = target: HIV-1 Env of strain BJOX025000.01.1 (HIV-1)
[3] = target: Env of HIV-1 strain CNE30 (HIV-1)
[4] = target: HIV-1 Env of strain 7030102001E5(Rev) (HIV-1)
[5] = target: Env of HIV-1 strain 6540.v4.c1 (HIV-1)
[6] = target: HIV-1 Env of strain 6244_13_B5_4576 (HIV-1)
[7] = target: Env of HIV-1 strain PVO.4 (HIV-1)
[8] = target: HIV-1 Env of strain BJOX009000.02.4 (HIV-1)
[9] = target: HIV-1 Env of strain P1981_C5_3 (HIV-1)
[10] = target: Env of HIV-1 strain ZM249M.PL1 (HIV-1)
[11] = target: HIV-1 Env of strain 231966.c02 (HIV-1)
[12] = target: Env of HIV-1 strain BJOX009000.02.4 (HIV-1)
[13] = target: HIV-1 Env of strain CAAN5342.A2 (HIV-1)
[14] = target: HIV-1 Env of strain 3817.v2.c59 (HIV-1)
[15] = target: HIV-1 Env of strain HIV-16055-2.3 (HIV-1)
[16] = target: HIV-1 Env of strain Ce0682_E4 (HIV-1)
[17] = target: HIV-1 Env of strain 620345.c01 (HIV-1)
[18] = target: HIV-1 Env of strain Q842.d12 (HIV-1)
[19] = target: Env of HIV-1 strain ZM53M.PB12 (HIV-1)
[20] = target: Env of HIV-1 strain HIV-16845-2.22 (HIV-1)
[21] = target: Env of HIV-1 strain C1080.c03 (HIV-1)
[22] = target: HIV-1 Env of strain Ce704809221_1B3 (HIV-1)
[23] = target: Env of HIV-1 strain CAP45.2.00.G3 (HIV-1)
[24] = target: Env of HIV-1 strain 6480.v4.c25 (HIV-1)
[25] = target: Env of HIV-1 strain Ce0682_E4 (HIV-1)
[26] = target: HIV-1 Env of strain R1166.c01 (HIV-1)
[27] = target: HIV-1 Env of strain 3365.v2.c2 (HIV-1)
[28] = target: HIV-1 Env of strain RHPA4259.7 (HIV-1)
[29] = target: HIV-1 Env of strain 191955_A11 (HIV-1)
[30] = target: Env of HIV-1 strain 1394C9G1(Rev-) (HIV-1)
[31] = target: HIV-1 Env of strain 263-8 (HIV-1)
[32] = target: Env of HIV-1 strain 3301.v1.c24 (HIV-1)
[33] = target: Env of HIV-1 strain Ce1172_H1 (HIV-1)
[34] = target: HIV-1 Env of strain Du422.1 (HIV-1)
[35] = target: Env of HIV-1 strain Ce2010_F5 (HIV-1)
[36] = target: HIV-1 Env of strain BJOX028000.10.3 (HIV-1)
[37] = target: Env of HIV-1 strain Ce1176_A3 (HIV-1)
[38] = target: HIV-1 Env of strain Ce0393_C3 (HIV-1)
[39] = target: Env of HIV-1 strain T278-50 (HIV-1)
[40] = target: Env of HIV-1 strain ZM247v1(Rev-) (HIV-1)
[41] = target: Env of HIV-1 strain Ce1086_B2 (HIV-1)
[42] = target: Env of HIV-1 strain 246F C1G (HIV-1)
[43] = target: Env of HIV-1 strain 1054_07_TC4_1499 (HIV-1)
[44] = target: HIV-1 Env of strain Ce703010054_2A2 (HIV-1)
[45] = target: HIV-1 Env of strain X2088_c9 (HIV-1)
[46] = target: HIV-1 Env of strain CNE53 (HIV-1)
[47] = target: HIV-1 Env of strain T251-18 (HIV-1)
[48] = target: Env of HIV-1 strain 3817.v2.c59 (HIV-1)
[49] = target: Env of HIV-1 strain 231965.c01 (HIV-1)
[50] = target: Env of HIV-1 strain 6545.v4.c1 (HIV-1)

Chain of NIH45-46 (antibody) (VH): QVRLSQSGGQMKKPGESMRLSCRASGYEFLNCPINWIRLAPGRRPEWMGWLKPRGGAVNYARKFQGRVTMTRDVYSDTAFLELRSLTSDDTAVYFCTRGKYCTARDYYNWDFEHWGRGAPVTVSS
Chain of NIH45-46 (antibody) (V domain): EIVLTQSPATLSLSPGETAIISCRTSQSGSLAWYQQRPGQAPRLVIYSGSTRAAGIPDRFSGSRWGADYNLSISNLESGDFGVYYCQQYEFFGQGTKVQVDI

Substance NIH45-46 (antibody) has an IC50, pseudovirus neutralization [1] of 0.035 µg/mL, an IC50, pseudovirus neutralization [2] of 0.18 µg/mL and an IC80 [3] of 1.07 µg/mL. The IC50, pseudovirus neutralization [4] was 0.14 µg/mL, the IC80 [5] was > 50 µg/mL and the IC50, pseudovirus neutralization [6] was 0.07 µg/mL. For the same substance, the IC80 [7] was 0.41 µg/mL, the IC50, pseudovirus neutralization [8] was 0.26 µg/mL and the IC50, pseudovirus neutralization [9] was 0.08 µg/mL. The IC80 [10] was 0.053 µg/mL, the IC50, pseudovirus neutralization [11] was 1.64 µg/mL and the IC80 [12] was 1.16 µg/mL. For the same substance, the IC50, pseudovirus neutralization [13] was 0.15 µg/mL, the IC50, pseudovirus neutralization [14] was > 50 µg/mL and the IC50, pseudovirus neutralization [15] was 0.02 µg/mL. The IC50, pseudovirus neutralization [16] was 0.054 µg/mL, the IC50, pseudovirus neutralization [17] was > 50 µg/mL and the IC50, pseudovirus neutralization [18] was 0.031 µg/mL. The IC80 [19] was 0.61 µg/mL, the IC80 [20] was 22.6 µg/mL and the IC80 [21] was 11.6 µg/mL. For the same substance, the IC50, pseudovirus neutralization [22] was 0.15 µg/mL, the IC80 [23] was > 50 µg/mL and the IC80 [24] was 0.1 µg/mL. For the same substance, the IC80 [25] was 0.155 µg/mL, the IC50, pseudovirus neutralization [26] was 0.31 µg/mL and the IC50, pseudovirus neutralization [27] was 0.029 µg/mL. For the same substance, the IC50, pseudovirus neutralization [28] was 0.017 µg/mL, the IC50, pseudovirus neutralization [29] was 0.11 µg/mL and the IC80 [30] was 0.38 µg/mL. The IC50, pseudovirus neutralization [31] was 0.05 µg/mL, the IC80 [32] was 0.033 µg/mL and the IC80 [33] was > 50 µg/mL. The IC50, pseudovirus neutralization [34] was > 50 µg/mL, the IC80 [35] was 0.357 µg/mL and the IC50, pseudovirus neutralization [36] was 0.07 µg/mL. The IC80 [37] was 3.17 µg/mL, the IC50, pseudovirus neutralization [38] was 0.334 µg/mL and the IC80 [39] was > 50 µg/mL. For the same substance, the IC80 [40] was 24.5 µg/mL, the IC80 [41] was 0.28 µg/mL and the IC80 [42] was > 50 µg/mL. The IC80 [43] was 0.404 µg/mL, the IC50, pseudovirus neutralization [44] was 0.159 µg/mL and the IC50, pseudovirus neutralization [45] was > 50 µg/mL. The IC50, pseudovirus neutralization [46] was 8 ng/mL, the IC50, pseudovirus neutralization [47] was 1.35 µg/mL and the IC80 [48] was > 50 µg/mL. The IC80 [49] was 0.126 µg/mL and the IC80 [50] was > 50 µg/mL.
